Legend:
hPD-L2-Fc = biological target: T1, hPD-L2-Fc (human, UniProt Q9BQ51 20-219); assay: ELISA, plate coated with hPD-L2-Fc
T1 construct: Acrobiosystems PD2-H5251; also called human PD-L2 protein; not shown: Fc tag
T1 sequence (looked up): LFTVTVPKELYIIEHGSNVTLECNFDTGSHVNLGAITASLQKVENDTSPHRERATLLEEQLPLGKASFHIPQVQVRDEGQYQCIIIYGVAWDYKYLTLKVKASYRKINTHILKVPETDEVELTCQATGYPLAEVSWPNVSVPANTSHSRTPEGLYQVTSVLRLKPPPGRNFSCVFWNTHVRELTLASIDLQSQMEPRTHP
Experimental: Briefly, high-binding clear polystyrene 96 well plates (Nunc) were coated with 100 μl/well of a 0.5 μg/ml human PD-L1-Fc (Acrobiosystems, Cat #PD1-H5258) or 100 μl/well of a 1 μg/ml hPD-L2-Fc (Acrobiosystems, Cat #PD2-H5251), respectively, in high pH coating buffer (0.16% Na2CO3+0.3% NaHCO₃, pH 9.8) and incubated overnight at 4° C. Then the plates were washed once on an automatic plate washer using washing buffer (PBS+0.1% Tween 20 (Amresco)). 200 μl of blocking buffer (PBS+1% BSA+1% normal goat serum+0.05% Tween-20) was added to each well and incubated for 2 hours at room temp. Then add 100 μl 2 μg/ml purified PD-L1 antibodies with dilution buffer (PBS+1% BSA+1% normal goat serum+0.01% Tween-20) and incubate for 1 hour at RT. The plates were then washed 3 times with washing buffer. 100 μl/well of a solution of HRP conjugated goat anti-mouse IgG antibody (1:20000, Abcam) in dilution buffer was then added to each well of the plate. After that the ELISA plates were allowed to incubate for 60 min at RT then the plates were washed 3 times with 250 μl/well washing buffer. Finally, 100 μl/well of TMB was added to each well for 15 min and the reaction was terminated using 50 ul/well of 0.16 M/L sulfuric acid. The plates were read on a Thermo Multiscan FC at 450 nM (see FIG. 6G).

[1] = biological target: T2, wild type human PD-L1-Fc protein (SEQ ID NO: 107) (human); assay: ELISA on captured PD-L1-Fc, as in Example 18A
T2 construct: Extracellular human PD-L1 (amino acid 19-238) with Fc fragment of human IgG1, expressed in 293T cells and used as culture supernatant; also called WT PD-L1; wild-type PD-L1

[2] = biological target: T3, human PD-L1-Fc mutant E58A (human); assay: ELISA on captured PD-L1-Fc, as in Example 18A
T3 construct: Position 58 counts on native human PD-L1 (NP_054862.1); also called E58A mutant

[3] = biological target: T4, Recombinant Human PD-L1/CD274 Protein (hPD-L1-his) (human, UniProt Q9NZQ7 19-238); assay: ELISA, purified mouse antibody on coated hPD-L1-his
T4 construct: range 19-238; ACRO Biosystem PD1-H5229, made in HEK293; also called human PD-L1-his; hPD-L-his
Experimental: High-binding clear polystyrene 96 well plates (Nunc) were coated with 100 μl/well of a 0.5 μg/ml hPD-L1-his in high pH coating buffer and incubated overnight 4° C. Then plates were washed once on an automatic plate washer using washing buffer (PBS+0.1% Tween 20 (Sigma)). 200 μl of blocking buffer (PBS+1% BSA+1% normal goat serum+0.05% Tween-20) was added to each well and incubated 2 hours at room temp. Then add serially diluted purified antibodies with dilution buffer (PBS+1% BSA+1% normal goat serum+0.01% Tween-20) and incubate for 1 hour at RT. The plates were then washed 3 times using the method described above. 100 μl/well of a solution of HRP conjugated goat anti-mouse Fc antibody (Abcam) in dilution buffer was then added to each well of the plate. After that the ELISA plates were allowed to incubate for 60 min at RT then plates were washed 3 times with 250 μl/well washing buffer. Finally, 100 μl/well of TMB was added to each well and was terminated using 0.64M H₂SO₄. The plates were read on a Thermo Multiscan FC at 450 nM (see FIG. 3).

[4] = biological target: T5, Human PD-L1/CD274 with C-Fc Tag (hPD-L1-Fc) (human, UniProt Q9NZQ7 19-238); assay: blocking ELISA on coated hPD-L1-Fc; blocked ligand: biotinylated hPD-1-Fc-N297A
T5 construct: range 19-238; ACRO Biosystem PD1-H5258, made in HEK293; also called human PD-L1-Fc; not shown: Fc fragment of human IgG1 at C-terminus
Experimental: High-binding clear polystyrene 96 well plates (Nunc) were coated with 100 μl/well of coating solution consisting of 0.5 μg/ml hPD-L1-Fc overnight at 4° C. Then washed once on an automatic plate washer using washing buffer PBS+0.1% Tween 20 (Sigma). 200 μl of blocking buffer (PBS+1% BSA+1% normal goat serum+0.05% Tween-20) was added to each well and incubated for 2 hours at room temperature. Then add serial diluted antibodies (from 10 μg/ml to 0.0006 μg/ml) with dilution buffer (PBS+1% BSA+1% normal goat serum+0.01% Tween-20) and incubate for 1 hour at RT. The plates were then washed 3 times using the method described above. […] After the plates were washed 3 times, 100 μl/well of a solution of HRP conjugated Neutravidin antibody (Pierce) diluted in dilution buffer was then added to each well of the plate. After that the ELISA plates were allowed to incubate for 60 min at RT then plates were washed 3 times with 250 μl/well washing buffer. Finally, 100 μl/well of TMB was added to each well and reaction was terminated using 0.64M H₂SO₄. The plates were read on a Thermo Multiscan FC at 450 nM (see FIG. 4A).

[5] = biological target: T6, Recombinant Mouse PD-L1/CD274 Protein (mPD-L1-his) (mouse, UniProt Q9EP73 19-238); assay: ELISA, 20 ug/ml antibody on coated mouse PD-L1 (his-tagged per text, mPD-L1-Fc per sheet title)
T6 construct: range 19-238; ACRO Biosystem PD1-M5220; also called mouse PD-L1-his
Experimental: High-binding clear polystyrene 96 well plates (Nunc) were coated with 100 μl/well of 1 μg/ml mouse PD-L1-his in high pH coating buffer and incubated overnight at 4° C. Then plates were washed once on an automatic plate washer using washing buffer (PBS+0.1% Tween 20 (Sigma)). 200 μl of blocking buffer (PBS+1% BSA+1% normal goat serum+0.05% Tween-20) was added to each well and incubated for 2 hours at room temp. Then add 20 μg/ml purified hybridoma mouse antibodies in dilution buffer (PBS+1% BSA+1% normal goat serum+0.01% Tween-20) and incubate for 1 hour at RT. The plates were then washed 3 times with 250 μl/well washing buffer. 100 μl/well of a solution of HRP conjugated goat anti-mouse Fc antibody (Abcam) in dilution buffer was then added to each well of the plate. After that the ELISA plates were allowed to incubate for 60 min at RT then plates were washed 3 times with 250 μl/well washing buffer. Finally, 100 μl/well of TMB was added to each well and the reaction was terminated using 0.64M H₂SO₄. The plates were read on a Thermo Multiscan FC at 450 nM (see FIG. 6F).

T3 sequence (chain, as listed by the source E58A E58A limits assumed): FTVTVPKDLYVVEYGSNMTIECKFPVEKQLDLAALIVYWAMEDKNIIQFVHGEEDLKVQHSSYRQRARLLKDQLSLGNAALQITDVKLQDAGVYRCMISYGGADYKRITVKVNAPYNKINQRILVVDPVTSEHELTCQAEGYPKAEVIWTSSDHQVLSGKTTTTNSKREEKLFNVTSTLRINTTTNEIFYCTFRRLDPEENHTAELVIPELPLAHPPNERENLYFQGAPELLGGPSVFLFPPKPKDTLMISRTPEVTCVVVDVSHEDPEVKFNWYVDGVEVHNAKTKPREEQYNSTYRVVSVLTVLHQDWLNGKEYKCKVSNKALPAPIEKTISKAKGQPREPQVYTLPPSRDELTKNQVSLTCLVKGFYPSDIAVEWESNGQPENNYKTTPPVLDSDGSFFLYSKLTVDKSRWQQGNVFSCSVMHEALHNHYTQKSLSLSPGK
T2 sequence (chain, as listed by the source limits assumed): as the sequence (chain, as listed by the source E58A E58A limits assumed) above, with A40E counted along it
T5 sequence (Q9NZQ7 19-238 limits assumed): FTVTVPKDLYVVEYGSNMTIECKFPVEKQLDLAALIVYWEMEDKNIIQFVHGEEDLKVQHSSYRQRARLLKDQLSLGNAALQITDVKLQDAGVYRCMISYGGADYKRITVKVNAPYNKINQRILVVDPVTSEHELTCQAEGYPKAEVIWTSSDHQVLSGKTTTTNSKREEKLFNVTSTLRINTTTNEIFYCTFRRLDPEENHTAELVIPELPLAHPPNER
T6 sequence (Q9EP73 other isoform, or with tags, fused parts or gaps limits assumed): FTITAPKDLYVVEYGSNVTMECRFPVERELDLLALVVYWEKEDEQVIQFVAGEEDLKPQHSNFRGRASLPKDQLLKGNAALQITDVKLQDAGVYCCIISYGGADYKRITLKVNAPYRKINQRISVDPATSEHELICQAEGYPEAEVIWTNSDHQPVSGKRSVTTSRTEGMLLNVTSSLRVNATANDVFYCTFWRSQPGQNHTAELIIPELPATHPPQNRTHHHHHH
T4 sequence (Q9NZQ7 other isoform, or with tags, fused parts or gaps limits assumed): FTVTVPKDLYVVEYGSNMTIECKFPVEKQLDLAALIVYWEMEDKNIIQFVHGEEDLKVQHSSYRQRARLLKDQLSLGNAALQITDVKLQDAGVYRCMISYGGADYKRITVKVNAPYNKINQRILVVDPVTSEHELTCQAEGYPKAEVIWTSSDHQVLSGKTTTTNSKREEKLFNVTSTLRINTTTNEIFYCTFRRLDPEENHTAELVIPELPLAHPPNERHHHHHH

binding result (hPD-L2-Fc): no binding (tested: 2 ug/ml) | Mean OD450 [1]: 1.53 OD450 | OD450 nM of sample-1 [1]: 1.39 OD450 | OD450 nM of sample-2 [1]: 1.68 OD450 | % of binding of Ab to E58A mutant vs. that to WT PD-L1 [2]: 60.6% | Mean OD450 [2]: 0.93 OD450 | OD450 nM of sample-1 [2]: 1.18 OD450 | OD450 nM of sample-2 [2]: 0.678 OD450 | EC50 (read off the curve) [3]: ~3 ng/mL | IC50 (read off the curve) [4]: ~20 ng/mL | binding result [5]: no binding (tested: 20 ug/ml)
B1: 26F5 (antibody, V domains shown)
VH: QVQLQQPGAELVKPGASVKLSCKASGYTFPSYWMHWMKQRPGQGLEWIGMIQPSTSGTIYNERFKNQVTLTVDKSSSTAYMQLSSQTSEDSAVYYCARGTGTVDYFDYWGQGTTLTVSS
VL: DIVLTQSPASLAVSLGQRATISCRASESVDSYGNSFIHWYQQKPGQPPKLLIHRASNLESGIPATFSGSGSRTDFTLTINPVEADDVATYYCQQSKEDPYTFGGGTKLEIK
notes: Mouse monoclonal from hybridoma; also called mouse monoclonal antibody 26F5
